B1: PI4K2A (parent)
chain: FVKDPQGRIIAVFKPKNEEPYGHL
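Further: lentivirally expressed fusions sorted by FACS into six bins by GFP to DsRed ratio, PSI derived from sequencing read proportions per bin multiplied by bin number.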

Variants of: B1
Assay: protein stability index of a GFP-peptide fusion (GPS, HEK-293T) (PSI 1-6); higher = more stable
Conditions: c terminus: a fixed tail appended
For FVKDPQGRIIAVFMPKNEEPYGHL, the protein stability index was 3.22.
FVKDPQGRIIAVFNPKNEEPYGHL gave a protein stability index of 1.13.
Work on FVKDPQGRIIAVFPPKNEEPYGHL yielded a protein stability index of 2.07.
With FVKDPQGRIIAVFQPKNEEPYGHL the protein stability index was 2.2.
FVKDPQGRIIAVFRPKNEEPYGHL gave a protein stability index of 1.18.
FVKDPQGRIIAVFSPKNEEPYGHL showed a protein stability index of 3.13.
FVKDPQGRIIAVFTPKNEEPYGHL gave a protein stability index of 2.17.
FVKDPQGRIIAVFVPKNEEPYGHL gave a protein stability index of 1.47.
FVKDPQGRIIAVFWPKNEEPYGHL showed a protein stability index of 1.78.
Variant FVKDPQGRIIAVFYPKNEEPYGHL has a protein stability index of 2.23.
For FVKDPQGRIIAVFKAKNEEPYGHL, the protein stability index was 2.18.
For FVKDPQGRIIAVFKCKNEEPYGHL, the protein stability index was 1.66.
FVKDPQGRIIAVFKDKNEEPYGHL showed a protein stability index of 1.9.
Variant FVKDPQGRIIAVFKEKNEEPYGHL has a protein stability index of 2.37.
Work on FVKDPQGRIIAVFKFKNEEPYGHL yielded a protein stability index of 1.77.
Variant FVKDPQGRIIAVFKGKNEEPYGHL has a protein stability index of 2.5.
In the case of FVKDPQGRIIAVFKHKNEEPYGHL, the protein stability index is reported as 1.58.
FVKDPQGRIIAVFKIKNEEPYGHL gave a protein stability index of 2.13.
For FVKDPQGRIIAVFKKKNEEPYGHL, the protein stability index was 2.45.
Work on FVKDPQGRIIAVFKLKNEEPYGHL yielded a protein stability index of 2.26.
FVKDPQGRIIAVFKMKNEEPYGHL gave a protein stability index of 2.1.
In the case of FVKDPQGRIIAVFKNKNEEPYGHL, the protein stability index is reported as 2.26.
FVKDPQGRIIAVFKQKNEEPYGHL showed a protein stability index of 2.07.
With FVKDPQGRIIAVFKRKNEEPYGHL the protein stability index was 2.84.
With FVKDPQGRIIAVFKSKNEEPYGHL the protein stability index was 1.96.
With FVKDPQGRIIAVFKTKNEEPYGHL the protein stability index was 1.27.
Variant FVKDPQGRIIAVFKVKNEEPYGHL has a protein stability index of 1.92.
In the case of FVKDPQGRIIAVFKWKNEEPYGHL, the protein stability index is reported as 1.08.
For FVKDPQGRIIAVFKYKNEEPYGHL, the protein stability index was 2.4.
For FVKDPQGRIIAVFKPANEEPYGHL, the protein stability index was 1.91.
Work on FVKDPQGRIIAVFKPCNEEPYGHL yielded a protein stability index of 1.63.
FVKDPQGRIIAVFKPDNEEPYGHL showed a protein stability index of 2.22.
Work on FVKDPQGRIIAVFKPENEEPYGHL yielded a protein stability index of 2.3.
In the case of FVKDPQGRIIAVFKPFNEEPYGHL, the protein stability index is reported as 2.44.
FVKDPQGRIIAVFKPGNEEPYGHL gave a protein stability index of 1.46.
For FVKDPQGRIIAVFKPHNEEPYGHL, the protein stability index was 1.97.
FVKDPQGRIIAVFKPINEEPYGHL showed a protein stability index of 2.31.
Work on FVKDPQGRIIAVFKPLNEEPYGHL yielded a protein stability index of 1.66.
For FVKDPQGRIIAVFKPMNEEPYGHL, the protein stability index was 1.98.
Variant FVKDPQGRIIAVFKPNNEEPYGHL has a protein stability index of 1.68.
In the case of FVKDPQGRIIAVFKPPNEEPYGHL, the protein stability index is reported as 1.7.
In the case of FVKDPQGRIIAVFKPQNEEPYGHL, the protein stability index is reported as 2.23.
With FVKDPQGRIIAVFKPRNEEPYGHL the protein stability index was 1.77.
Variant FVKDPQGRIIAVFKPSNEEPYGHL has a protein stability index of 1.48.
Work on FVKDPQGRIIAVFKPTNEEPYGHL yielded a protein stability index of 1.42.
Work on FVKDPQGRIIAVFKPVNEEPYGHL yielded a protein stability index of 2.79.
With FVKDPQGRIIAVFKPWNEEPYGHL the protein stability index was 2.23.
For FVKDPQGRIIAVFKPYNEEPYGHL, the protein stability index was 2.44.
For FVKDPQGRIIAVFKPKAEEPYGHL, the protein stability index was 2.52.
Variant FVKDPQGRIIAVFKPKCEEPYGHL has a protein stability index of 2.31.
In the case of FVKDPQGRIIAVFKPKDEEPYGHL, the protein stability index is reported as 1.84.
Variant FVKDPQGRIIAVFKPKEEEPYGHL has a protein stability index of 2.33.
Work on FVKDPQGRIIAVFKPKFEEPYGHL yielded a protein stability index of 1.57.
Variant FVKDPQGRIIAVFKPKGEEPYGHL has a protein stability index of 1.48.
FVKDPQGRIIAVFKPKHEEPYGHL gave a protein stability index of 2.38.
For FVKDPQGRIIAVFKPKIEEPYGHL, the protein stability index was 1.63.
FVKDPQGRIIAVFKPKKEEPYGHL gave a protein stability index of 1.73.
Variant FVKDPQGRIIAVFKPKLEEPYGHL has a protein stability index of 2.35.
FVKDPQGRIIAVFKPKMEEPYGHL gave a protein stability index of 1.9.
Work on FVKDPQGRIIAVFKPKPEEPYGHL yielded a protein stability index of 2.
With FVKDPQGRIIAVFKPKQEEPYGHL the protein stability index was 1.97.
With FVKDPQGRIIAVFKPKREEPYGHL the protein stability index was 1.3.
FVKDPQGRIIAVFKPKSEEPYGHL gave a protein stability index of 1.64.
FVKDPQGRIIAVFKPKTEEPYGHL showed a protein stability index of 1.92.
For FVKDPQGRIIAVFKPKVEEPYGHL, the protein stability index was 1.66.
Variant FVKDPQGRIIAVFKPKWEEPYGHL has a protein stability index of 2.41.
For FVKDPQGRIIAVFKPKYEEPYGHL, the protein stability index was 1.68.
In the case of FVKDPQGRIIAVFKPKNAEPYGHL, the protein stability index is reported as 2.39.
FVKDPQGRIIAVFKPKNCEPYGHL gave a protein stability index of 2.02.
FVKDPQGRIIAVFKPKNDEPYGHL showed a protein stability index of 2.16.
FVKDPQGRIIAVFKPKNFEPYGHL showed a protein stability index of 1.96.
FVKDPQGRIIAVFKPKNGEPYGHL showed a protein stability index of 3.17.
For FVKDPQGRIIAVFKPKNHEPYGHL, the protein stability index was 1.62.
FVKDPQGRIIAVFKPKNIEPYGHL gave a protein stability index of 2.22.
FVKDPQGRIIAVFKPKNKEPYGHL showed a protein stability index of 2.04.
With FVKDPQGRIIAVFKPKNLEPYGHL the protein stability index was 3.88.
FVKDPQGRIIAVFKPKNMEPYGHL showed a protein stability index of 2.08.
Work on FVKDPQGRIIAVFKPKNNEPYGHL yielded a protein stability index of 1.48.
With FVKDPQGRIIAVFKPKNPEPYGHL the protein stability index was 1.79.
Variant FVKDPQGRIIAVFKPKNQEPYGHL has a protein stability index of 1.8.
For FVKDPQGRIIAVFKPKNREPYGHL, the protein stability index was 2.1.
Variant FVKDPQGRIIAVFKPKNSEPYGHL has a protein stability index of 2.2.
For FVKDPQGRIIAVFKPKNTEPYGHL, the protein stability index was 1.35.
FVKDPQGRIIAVFKPKNVEPYGHL gave a protein stability index of 2.23.
Variant FVKDPQGRIIAVFKPKNYEPYGHL has a protein stability index of 2.98.
FVKDPQGRIIAVFKPKNEAPYGHL showed a protein stability index of 1.58.
In the case of FVKDPQGRIIAVFKPKNECPYGHL, the protein stability index is reported as 2.52.
FVKDPQGRIIAVFKPKNEDPYGHL gave a protein stability index of 2.16.
Variant FVKDPQGRIIAVFKPKNEFPYGHL has a protein stability index of 1.52.
In the case of FVKDPQGRIIAVFKPKNEGPYGHL, the protein stability index is reported as 1.67.
Variant FVKDPQGRIIAVFKPKNEHPYGHL has a protein stability index of 2.1.
Work on FVKDPQGRIIAVFKPKNEIPYGHL yielded a protein stability index of 2.62.
For FVKDPQGRIIAVFKPKNEKPYGHL, the protein stability index was 2.58.
Work on FVKDPQGRIIAVFKPKNELPYGHL yielded a protein stability index of 2.34.

Source: the supplement of paper PMC10567573
